Results reported in the supplement of paper PMC10598134.
± gives the standard deviation.

Test: collision cross section of modified peptide (TIMS, N2, iRT-aligned); higher = larger / more extended gas-phase ion
In short: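 Synthetic peptide pools (~100 fmol/µL in 2% acetonitrile/0.1% formic acid, iRT standard spiked 1:40) were separated on a 120-min nanoflow C18 gradient at 60 °C. They were analysed on a timsTOF Pro/HT (dda-PASEF, nitrogen, ~2.4 mbar) and identified with MaxQuant. 1/K0 was calibrated with three reference ions and aligned run-wise to the median iRT peptide deviation. Collision cross section came from the Mason-Schamp equation, averaging 1–3 technical replicates of the most abundant feature per charge state.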

[1] = charge state: 2, modification: GlyGly (K)
[2] = charge state: 3, modification: GlyGly (K)
[3] = charge state: 2, modification: Nitro (Y)
[4] = charge state: 3, modification: Nitro (Y)
[5] = charge state: 2, modification: hydroxyisobutyryl
[6] = charge state: 3, modification: hydroxyisobutyryl
[7] = charge state: 2, modification: Crotonyl
[8] = charge state: 2, modification: Trimethyl (K)
[9] = charge state: 3, modification: Trimethyl (K)
[10] = charge state: 2, modification: Succinyl
[11] = charge state: 2, modification: Dimethyl (K)
[12] = charge state: 3, modification: Dimethyl (K)
[13] = charge state: 2, modification: Acetyl (K)
[14] = charge state: 2, modification: Formyl
[15] = charge state: 2, modification: Malonyl
[16] = charge state: 3, modification: HexNAc (ST)
[17] = charge state: 3, modification: Formyl
[18] = charge state: 2, modification: Glutarylation
[19] = charge state: 3, modification: Glutarylation
[20] = charge state: 2, modification: Biotin
[21] = charge state: 3, modification: Biotin
[22] = charge state: 2, modification: Butyryl
[23] = charge state: 3, modification: Butyryl
[24] = charge state: 3, modification: Methyl (R)
[25] = charge state: 2, modification: Propionyl
[26] = charge state: 2, modification: Hydroxyproline
[27] = charge state: 3, modification: Hydroxyproline
[28] = charge state: 2, modification: Methyl (K)
[29] = charge state: 3, modification: Methyl (K)
[30] = charge state: 3, modification: Crotonyl
[31] = charge state: 2, modification: Citrullination (R)

In the case of “LQDVSGQLSSSKK [_LQDVSGQLSSSK(GlyGly (K))K_]”, the collision cross section [1] is reported as 438.61 ± 1.4 Å² and the collision cross section [2] is reported as 490.05 ± 4.9 Å².
Substance FHYQDQEFLK [_FHY(Nitro (Y))QDQEFLK_] has a collision cross section [3] of 402.47 ± 0.18 Å² and a collision cross section [4] of 452.15 ± 1.1 Å².
“FDDTNPEKEEAK [_FDDTNPEK(hydroxyisobutyryl)EEAK_]” showed a collision cross section [5] of 401.52 ± 0.54 Å² and a collision cross section [6] of 443.87 ± 2.2 Å².
In the case of “ALASIDSKLNQAK [_ALASIDSK(Crotonyl)LNQAK_]”, the collision cross section [7] is reported as 401.19 ± 0.9 Å².
“DLSTVEALQNLKNLK [_DLSTVEALQNLK(Trimethyl (K))NLK_]” showed a collision cross section [8] of 478.82 ± 1.1 Å² and a collision cross section [9] of 501.71 ± 2.5 Å².
Substance FEGAIYR [_FEGAIY(Phospho (Y))R_] has a collision cross section (charge state: 2, modification: Phospho (Y)) of 333.04 ± 0.65 Å².
With “YEEIVKEVSTYIK [_YEEIVK(Succinyl)EVSTYIK_]” the collision cross section [10] was 438.13 ± 0.83 Å².
“SLGEPAAGEGSAKR [_SLGEPAAGEGSAK(Dimethyl (K))R_]” gave a collision cross section [11] of 415.22 ± 2 Å² and a collision cross section [12] of 473.88 ± 2.6 Å².
CQGGQETQEYR [_CQGGQETQEY(Nitro (Y))R_] showed a collision cross section [3] of 375.36 ± 1.3 Å².
Work on “GETASKLQSEISR [_GETASK(Acetyl (K))LQSEISR_]” yielded a collision cross section [13] of 386.09 ± 2 Å² and a collision cross section (charge state: 3, modification: Acetyl (K)) of 464.45 ± 0.086 Å².
With ITASLCDLKSR [_ITASLCDLK(Formyl)SR_] the collision cross section [14] was 378.38 Å².
For IISSIEQKEENK [_IISSIEQK(Malonyl)EENK_], the collision cross section [15] was 405.63 ± 0.59 Å².
“FLQEFYQDDELGKK [_FLQEFYQDDELGK(Succinyl)K_]” showed a collision cross section [10] of 450.32 ± 0.96 Å².
In the case of “TTSYPTPRPYPKPAPSSGK [_TTSYPTPRPYPKPAPS(HexNAc (ST))SGK_]”, the collision cross section [16] is reported as 526.67 Å².
“GTITVSAQELKDNR [_GTITVSAQELK(Formyl)DNR_]” gave a collision cross section [14] of 413.69 ± 0.19 Å² and a collision cross section [17] of 471.67 ± 1.8 Å².
Work on VGEFSGANKEK [_VGEFSGANK(Succinyl)EK_] yielded a collision cross section [10] of 357.27 ± 0.73 Å².
For “ITLSKHQNVQLPR [_ITLSK(Trimethyl (K))HQNVQLPR_]”, the collision cross section [9] was 492.22 ± 3.3 Å².
“GADFLVTEVENGGSLGSKK [_GADFLVTEVENGGSLGSK(Gluratylation)K_]” showed a collision cross section [18] of 481.44 ± 2 Å² and a collision cross section [19] of 556.42 Å².
Work on “IVEKYGYTHLSAGELLR [_IVEK(Gluratylation)YGYTHLSAGELLR_]” yielded a collision cross section [19] of 567.6 ± 0.21 Å².
For GGPGSTLSFVGKR [_GGPGSTLSFVGK(Biotin)R_], the collision cross section [20] was 397.77 Å².
“ATVASSTQKFQDLGVK [_ATVASSTQK(Formyl)FQDLGVK_]” gave a collision cross section [14] of 442.05 ± 0.78 Å².
For “YEEIVKEVSTYIK [_YEEIVK(Dimethyl (K))EVSTYIK_]”, the collision cross section [12] was 492.52 Å².
With SKHLQEQLNELK [_SK(Biotin)HLQEQLNELK_] the collision cross section [21] was 520.89 Å².
With DVNAAIAAIKTK [_DVNAAIAAIK(Butyryl)TK_] the collision cross section [22] was 406.92 ± 0.23 Å² and the collision cross section [23] was 469.41 Å².
In the case of “AGQKLIDVNHYAK [_AGQK(Malonyl)LIDVNHYAK_]”, the collision cross section [15] is reported as 433.55 ± 0.56 Å² and the collision cross section (charge state: 3, modification: Malonyl) is reported as 477.49 ± 1.8 Å².
“SRGGGGNFGPGPGSNFR [_SR(Methyl (R))GGGGNFGPGPGSNFR_]” gave a collision cross section [24] of 461.66 ± 1.4 Å².
“TELLPGDRDNLAIQTR [_TELLPGDRDNLAIQT(HexNAc (ST))R_]” showed a collision cross section [16] of 528.81 ± 0.18 Å².
With SPDEAYAIAKK [_SPDEAYAIAK(Biotin)K_] the collision cross section [20] was 394.29 ± 1.1 Å².
In the case of “GGPGSTLSFVGKR [_GGPGSTLSFVGK(Propionyl)R_]”, the collision cross section [25] is reported as 384.23 ± 0.44 Å².
In the case of “SLEEEGAAHSGKR [_SLEEEGAAHSGK(Gluratylation)R_]”, the collision cross section [18] is reported as 420.5 ± 2 Å² and the collision cross section [19] is reported as 475.56 ± 1.7 Å².
For “SSGPGGQNVNKVNSK [_SSGPGGQNVNK(hydroxyisobutyryl)VNSK_]”, the collision cross section [5] was 407.53 ± 1.1 Å² and the collision cross section [6] was 447.88 ± 1.1 Å².
Substance “GGPGAPGAPGPKGESGDYK [_GGP(Hydroxyproline)GAPGAPGPKGESGDYK_]” has a collision cross section [26] of 431.65 ± 0.34 Å² and a collision cross section [27] of 482.83 ± 2.3 Å².
“VFSIISSEKELK [_VFSIISSEK(Methyl (K))ELK_]” gave a collision cross section [28] of 411.54 ± 0.9 Å² and a collision cross section [29] of 489.57 ± 1.9 Å².
For ILDLKTGTVK [_ILDLK(Acetyl (K))TGTVK_], the collision cross section [13] was 355.21 ± 0.89 Å².
“LGNDFHTNKR [_LGNDFHTNK(Gluratylation)R_]” showed a collision cross section [18] of 382 ± 0.1 Å² and a collision cross section [19] of 434.71 ± 2.9 Å².
In the case of “AAQASDLEKIHLDEK [_AAQASDLEK(Butyryl)IHLDEK_]”, the collision cross section [22] is reported as 463.03 ± 1.1 Å² and the collision cross section [23] is reported as 499.42 ± 2.9 Å².
In the case of “YEEIVKEVSTYIK [_YEEIVK(Methyl (K))EVSTYIK_]”, the collision cross section [28] is reported as 440.62 ± 1.8 Å² and the collision cross section [29] is reported as 492.07 ± 3.2 Å².
For KYEEIDNAPEER [_K(Crotonyl)YEEIDNAPEER_], the collision cross section [7] was 413.83 ± 0.55 Å² and the collision cross section [30] was 493.07 ± 1.6 Å².
For LQLEIDQKK [_LQLEIDQK(Acetyl (K))K_], the collision cross section [13] was 364.82 ± 0.76 Å².
DFDTALKHYDK [_DFDTALK(Formyl)HYDK_] showed a collision cross section [14] of 397.93 ± 1.3 Å² and a collision cross section [17] of 457.98 ± 2.1 Å².
Work on “GFCFITYTDEEPVKK [_GFCFITYTDEEPVK(hydroxyisobutyryl)K_]” yielded a collision cross section [5] of 453.41 ± 0.8 Å².
GSLEKGSPEDK [_GSLEK(Methyl (K))GSPEDK_] showed a collision cross section [28] of 357.31 ± 0.34 Å² and a collision cross section [29] of 434.75 ± 5.3 Å².
“GFALVGVGSEASSKK [_GFALVGVGSEASSK(Butyryl)K_]” showed a collision cross section [22] of 447.9 ± 0.87 Å² and a collision cross section [23] of 499.86 ± 2.6 Å².
Work on “DLSTVEALQNLKNLK [_DLSTVEALQNLK(Butyryl)NLK_]” yielded a collision cross section [22] of 484.29 ± 0.35 Å² and a collision cross section [23] of 550.2 Å².
In the case of “VNIGQGSHPQKVK [_VNIGQGSHPQK(Butyryl)VK_]”, the collision cross section [22] is reported as 432.28 ± 0.24 Å² and the collision cross section [23] is reported as 485.89 ± 2.6 Å².
Substance “ASAISIKLGSSK [_ASAISIK(Trimethyl (K))LGSSK_]” has a collision cross section [8] of 386.31 ± 1.1 Å² and a collision cross section [9] of 448.52 ± 3.3 Å².
“VTLEVGKVIQQGR [_VTLEVGK(Trimethyl (K))VIQQGR_]” gave a collision cross section [8] of 428.78 ± 1 Å² and a collision cross section [9] of 471.08 ± 1.8 Å².
“ALLQAKASGK [_ALLQAK(Trimethyl (K))ASGK_]” showed a collision cross section [8] of 354.6 ± 1.6 Å² and a collision cross section [9] of 406.65 Å².
For HGVYNPNK [_HGVY(Nitro (Y))NPNK_], the collision cross section [3] was 338.11 ± 3.3 Å².
“LTEKELAEAASK [_LTEK(Propionyl)ELAEAASK_]” showed a collision cross section [25] of 389.08 ± 0.49 Å².
“FVDSKVGEFSGANK [_FVDSK(Formyl)VGEFSGANK_]” showed a collision cross section [14] of 406.35 Å².
For “LQAAYAGDKADDIQK [_LQAAYAGDK(Butyryl)ADDIQK_]”, the collision cross section [22] was 436.77 ± 0.53 Å² and the collision cross section [23] was 489.7 ± 2.9 Å².
With “FLQEFYQDDELGKK [_FLQEFYQDDELGK(hydroxyisobutyryl)K_]” the collision cross section [5] was 452.81 ± 0.81 Å² and the collision cross section [6] was 512.84 ± 1.6 Å².
With “LLIVSTTPYSEKDTK [_LLIVSTTPYSEK(GlyGly (K))DTK_]” the collision cross section [1] was 461.81 ± 0.94 Å² and the collision cross section [2] was 515.54 ± 1.1 Å².
“LQAAYAGDKADDIQK [_LQAAYAGDK(Biotin)ADDIQK_]” showed a collision cross section [20] of 449.09 ± 0.62 Å² and a collision cross section [21] of 511.95 ± 0.34 Å².
Work on “GRGVGSPEPGPTAPYLGR [_GR(Citrullination (R))GVGSPEPGPTAPYLGR_]” yielded a collision cross section [31] of 422.7 ± 0.55 Å² and a collision cross section (charge state: 3, modification: Citrullination (R)) of 509.44 ± 39 Å².
In the case of “GVPRGVHLGSQGLQR [_GVPR(Methyl (R))GVHLGSQGLQR_]”, the collision cross section [24] is reported as 492.74 ± 2.1 Å².
“GADFLVTEVENGGSLGSKK [_GADFLVTEVENGGSLGSK(Crotonyl)K_]” gave a collision cross section [7] of 475.14 ± 1.9 Å² and a collision cross section [30] of 548.96 Å².
Work on “RGVGAGAIAK [_R(Citrullination (R))GVGAGAIAK_]” yielded a collision cross section [31] of 319.31 Å².
“IVSGKDYNVTANSK [_IVSGK(Butyryl)DYNVTANSK_]” showed a collision cross section [22] of 419.09 ± 2.9 Å².
With THLAPYSDELR [_THLAPY(Nitro (Y))SDELR_] the collision cross section [3] was 377.13 ± 2.5 Å² and the collision cross section [4] was 453.98 ± 1.8 Å².
Work on “SLGEPAAGEGSAKR [_SLGEPAAGEGSAK(Biotin)R_]” yielded a collision cross section [20] of 403.03 Å².
“VYIASSSGSTAIKK [_VYIASSSGSTAIK(Methyl (K))K_]” gave a collision cross section [28] of 428.78 ± 1.9 Å² and a collision cross section [29] of 495.87 ± 3.1 Å².
For “AAINQKLIETGER [_AAINQK(Dimethyl (K))LIETGER_]”, the collision cross section [11] was 413.1 ± 1.4 Å² and the collision cross section [12] was 468.56 ± 2.6 Å².
In the case of “YTAILNQIPSHSSSIR [_YTAILNQIP(Hydroxyproline)SHSSSIR_]”, the collision cross section [26] is reported as 473.92 ± 0.82 Å² and the collision cross section [27] is reported as 518.79 ± 6.1 Å².
Substance “LDEKENLSAK [_LDEK(hydroxyisobutyryl)ENLSAK_]” has a collision cross section [5] of 373.33 ± 0.28 Å².
